Molecular target: T1, vimentin in lupus nephritis kidney tissue (Homo sapiens, UniProt P08670)
T1 construct: endogenous vimentin of human lupus nephritis biopsies; vimentin-rich zones marked with the anti-vimentin antibody V9; also called Vim^hi zones of inflamed lupus kidney; source: endogenous, paraffin embedded human lupus kidney biopsies
Assay: immunostaining of cells or tissue; paraffin embedded lupus nephritis kidney biopsies, FLAG-tagged human IgG1 mAbs detected with rat anti-FLAG and Alexa Fluor 488 anti-rat IgG, co-stained with V9 and Hoechst; confocal microscopy, per field of view
Conditions: one partner purified

T1 sequence (P08670 whole entry): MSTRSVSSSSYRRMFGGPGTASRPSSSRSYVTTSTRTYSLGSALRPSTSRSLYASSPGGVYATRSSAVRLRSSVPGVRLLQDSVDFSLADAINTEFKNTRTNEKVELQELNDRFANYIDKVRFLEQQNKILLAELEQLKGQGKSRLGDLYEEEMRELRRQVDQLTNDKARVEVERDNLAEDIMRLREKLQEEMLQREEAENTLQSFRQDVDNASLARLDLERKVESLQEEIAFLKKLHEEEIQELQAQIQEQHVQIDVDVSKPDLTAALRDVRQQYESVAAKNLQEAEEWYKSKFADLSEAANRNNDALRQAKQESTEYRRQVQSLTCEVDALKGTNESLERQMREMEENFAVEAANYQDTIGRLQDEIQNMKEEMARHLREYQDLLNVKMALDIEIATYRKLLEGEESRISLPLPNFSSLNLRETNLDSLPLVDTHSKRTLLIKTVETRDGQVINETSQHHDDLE

binding result: binds
B1: FLAG-tagged PB4rev (antibody, V domains shown)
VH: QVQLQESGPGLVKPSETLSLTCTVSGGSISSYYWSWIRQPAGKGLEWIGRIYTSGSTNYNPSLKSRVTMSVDTSKNQFSLKLSSVTAADTAVYYCARESRGAVLTGDYYYYYYMDVWGKGTTVTVSS
VL: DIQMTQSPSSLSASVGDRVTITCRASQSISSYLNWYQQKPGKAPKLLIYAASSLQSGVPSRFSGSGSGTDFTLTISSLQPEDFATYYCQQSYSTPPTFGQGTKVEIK
notes: as the heavy chain of m8; as the light chain of m8; also called PB4rev (FLAG); source: heavy chain vector FJ475055 with FLAG co-expressed with the light chain plasmid, purified with protein A; not shown: FLAG, C-terminal, kept

From PMC7731665 (Frontiers in Immunology, 2020)
